T1: constitutively active bovine Rab3A (Q81L), full-length, bait in pBTM116 (bovine, UniProt P11023 1-220)
T1 construct: also called active Rab3A (Q81L); not shown: fusion partner encoded by bait vector pBTM116
T1 sequence (looked up): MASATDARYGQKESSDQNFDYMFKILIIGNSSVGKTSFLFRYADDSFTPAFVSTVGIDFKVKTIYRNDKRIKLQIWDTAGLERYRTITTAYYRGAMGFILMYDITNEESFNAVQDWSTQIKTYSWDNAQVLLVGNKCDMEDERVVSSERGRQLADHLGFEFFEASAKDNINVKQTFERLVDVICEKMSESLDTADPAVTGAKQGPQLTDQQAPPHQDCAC


Experiments:
[1] = target: endogenous Rim2 of PC12 cells; test: cell-based or functional assay
[2] = target: T1, constitutively active bovine Rab3A …; test: yeast two-hybrid, liquid β-galactosidase assay

| 8-Br-cAMP (1 mM)-induced, Ca2+-dependent GH secretion [1] | binding result [2] | Molecule |
| --- | --- | --- |
| 34.9% | – | wild-type cAMP-GEFII (expressed in PC12 cells from pSRα) (from UniProt Q9EQZ6 1-1011) |
| – | binds | rat Rim1 zinc finger domain (amino acid residues 1-204), prey in pVP16 (other, UniProt Q9JIR4 1-204, looked up, range 1-204; not shown: fusion partner encoded by prey vector pVP16) MSSAVGPRGPRPPTVPPPMQELPDLSHLTEEERNIIMAVMDRQKEEEEKEEAMLKCVVRDMAKPAACKTPRNAESQPHQPPLNIFRCVCVPRKPSSEEGGPERDWRLHQQFESYKEQVRKIGEEARRYQGEHKDDAPTCGICHKTKFADGCGHLCSYCRTKFCARCGGRVSLRSNNEDKVVMWVCNLCRKQQEILTKSGAWFFG |
